# Source: FireProtDB (doi:10.1016/j.jmb.2003.11.056)
# Where “and” joins values, the source holds several entries; their conditions need not be identical. Equal entries are not always repeated.
# Conditions: Escherichia coli (strain K12), Thermal, Fluorescence, whole UniProt chain shown
protein,measurement,setting,value
"Iron-sulfur cluster assembly protein CyaY wild type, P27838 (protein) MNDSEFHRLADQLWLTIEERLDDWDGDSDIDCEINGGVLTITFENGSKIIINRQEPLHQVWLATKQGGYHFDLKGDEWICDRSGETFWDLLEQAATQQAGETVSFR",Tm,"pH 7, phosphate 20 mM",53.2 °C and 53.9 °C and 53.8 °C
same,Tm,"pH 7.2, Hepes 10 mM",49.2 °C and 50.9 °C
